Test results taken from patent US20080286752A1, “Methods for the production of HCV, assaying HCV entry, and screening drugs and cellular receptors for HCV” (priority 2005, published 2008).

Legend:
[1] = target: T1, HCV E1 and E2 proteins (C22E1E2, genotype 1a) (Hepatitis C virus genotype 1a, UniProt P27958, H297R/K360A/N321D/N391S/R602W/V212I/Y589H); assay type: cell-based
T1 construct: residues 24-215 are E1, and residues 216-577 are E2; expressed in transfected cells; host or cells: 293T effector cells transfected with pcDNA3.1-HE1E2, co-cultured with Huh-7.5 target cells

[2] = system: HCV pseudoparticles; conditions: reports; cited from earlier work

Sequence: SAYQVRNSSGLYHVTNDC
- effect on HCV E1E2 mediated fusion ([1]; peptide added to cells for an hour before fusion, concentrations up to 10 mM): little effect
- inhibition of transduction with pseudoparticles [2]: does not

Sequence: SSGLYHVTNDCPNSSIVY
- inhibition of HCV E1E2 mediated fusion ([1]; peptide added to cells at concentrations of 10 nM or above for an hour before fusion): ~40%
- inhibition of transduction with pseudoparticles [2]: inhibits
